Test results published in paper PMC8217511 (2021).
Like-named read-outs stand apart in the source and are kept apart here.

B1: CrSAS-6_6HR, N-terminal domain and six heptad repeats of the coiled-coil of Chlamydomonas reinhardtii SAS-6 (domain or fragment)
chain: MPLLLDDGDPKAQTGFDLSTATTLFWRPVPVHVKQQDREDVLEELTFRILTGVAKQNHNLRILRIHISSDSDLFFLHTLEVSEEDFQSLKNDQGILVDFASFPGKIISLLEKCILAQPGDSPRFQAVLTIRGGESVFKIVEINDFKQLPHITLAFRPGNDSVVKQFLAFRLSEVKGTCHDLSDDLSRTRDDRDSMVAQLAQCRQQLAQLREQYDKHLLEVQAQAKT
B2: monobody MB_(CRS6)-15, purified (designed binder)
chain: GSVSSVPTKLEVVAATPTSLLISWDAPAVTVYLYVITYGETGGNSPVQEFEVPGSKSTATISGLKPGVDYTITVYASSKHSSRYASPISINYRT

Assays:
Test in all cases: ITC
MBCRS6-6 = biological target: MBCRS6-6
MBCRS6-3 = biological target: MBCRS6-3
MBCRS6-2 = biological target: MBCRS6-2
MBCRS6-4 = biological target: MBCRS6-4
MBCRS6-5 [1] = biological target: MBCRS6-5
MBCRS6-12 = biological target: MBCRS6-12
MBCRS6-5 [2] = biological target: MBCRS6-5; remark: listed apart in the source
[3] = biological target: B1

Binder: B1
- Kd (MBCRS6-6): 570 nM
- Kd (MBCRS6-3): 369 nM
- Kd (MBCRS6-2): 88700 nM
- Kd (MBCRS6-4): 316 nM
- Kd (MBCRS6-5 [1]): 31 nM
- Kd (MBCRS6-12): 193 nM
- Kd (MBCRS6-5 [2]): 31.1 nM

Binder: B2
- Kd [3]: 468 nM
